Test results reported in publication PMC3411398, “Quaternary structures of recombinant, cellular, and serum forms of Thymidine Kinase 1 from dogs and humans” (BMC Biochemistry, 2012).
“And” between values parts separate entries of the source, which are not always exact repeats. Equal entries are not always repeated.

Experiments:
[1] = biological target: cellular (native) canine TK1 from MDCK cells (dog (endogenous in MDCK)); assay: SEC; Superose 12, 0.01 M HEPES/KOH pH 7.6, 0.15 M NH4Cl, 0.02% NaN3; crude cell extracts (MDCK, CEM), untreated or treated with DTE before chromatography; fractions read by TK1 activity and western blot
[2] = biological target: canine serum TK1 (dog (endogenous in serum)); assay: SEC; Superose 12, 0.01 M HEPES/KOH pH 7.6, 0.15 M NH4Cl, 0.02% NaN3; sera diluted 1:1, untreated or pre-treated with 20 mM DTE; fractions read by TK1 activity and immunoaffinity capture with western blot
[3] = biological target: the molecule itself; assay: as above
[4] = biological target: the molecule itself; assay: SEC; Superose 12, 0.01 M HEPES/KOH pH 7.6, 0.15 M NH4Cl, 0.02% NaN3, no reducing agent in the buffer; 4 ug of freshly isolated recombinant TK1, untreated or pre-incubated with 20 mM DTE for 30 min on ice; fractions read by TK1 activity and western blot
[5] = biological target: the molecule itself; assay: SEC; Superose 12, 0.01 M HEPES/KOH pH 7.6, 0.15 M NH4Cl, 0.02% NaN3; crude cell extracts (MDCK, CEM), untreated or treated with DTE before chromatography; fractions read by TK1 activity and western blot

## cellular (native) canine TK1 from MDCK cells (enzyme)
[1]
  stoichiometry N: 2 and 4

## canine serum TK1 (enzyme)
[2]
  stoichiometry N: 2 and 4

B1: human serum TK1 (enzyme, human (endogenous in serum), UniProt P04183 1-234, looked up)
chain: MSCINLPTVLPGSPSKTRGQIQVILGPMFSGKSTELMRRVRRFQIAQYKCLVIKYAKDTRYSSSFCTHDRNTMEALPACLLRDVAQEALGVAVIGIDEGQFFPDIVEFCEAMANAGKTVIVAALDGTFQRKPFGAILNLVPLAESVVKLTAVCMECFREAAYTKRLGTEKEVEVIGGADKYHSVCRLCYFKKASGQPAGPDNKENCPVPGKPGEAVAARKLFAPQQILQCSPAN
notes: thymidine kinase 1, human, serum form; polypeptide of apparent MW 25 kDa on western blot; source: endogenous, pooled sera from human patients with acute lymphocytic leukemia
[3]
  stoichiometry N: 2 and 4

B2: recombinant human thymidine kinase 1 (enzyme, UniProt P04183 1-234, looked up)
chain: MSCINLPTVLPGSPSKTRGQIQVILGPMFSGKSTELMRRVRRFQIAQYKCLVIKYAKDTRYSSSFCTHDRNTMEALPACLLRDVAQEALGVAVIGIDEGQFFPDIVEFCEAMANAGKTVIVAALDGTFQRKPFGAILNLVPLAESVVKLTAVCMECFREAAYTKRLGTEKEVEVIGGADKYHSVCRLCYFKKASGQPAGPDNKENCPVPGKPGEAVAARKLFAPQQILQCSPAN
notes: thymidine kinase 1, human, full-length cDNA; vector pEXP-5NT/TOPO; also called hTK1; human TK1
[4]
  stoichiometry N: 2 and 4

B3: cellular (native) human TK1 from CEM cells (enzyme, human (endogenous in CCRF-CEM), UniProt P04183 1-234, looked up)
chain: MSCINLPTVLPGSPSKTRGQIQVILGPMFSGKSTELMRRVRRFQIAQYKCLVIKYAKDTRYSSSFCTHDRNTMEALPACLLRDVAQEALGVAVIGIDEGQFFPDIVEFCEAMANAGKTVIVAALDGTFQRKPFGAILNLVPLAESVVKLTAVCMECFREAAYTKRLGTEKEVEVIGGADKYHSVCRLCYFKKASGQPAGPDNKENCPVPGKPGEAVAARKLFAPQQILQCSPAN
notes: thymidine kinase 1, human, endogenous in CCRF-CEM cells; 25 kDa band on western blot; also called cytosolic human TK1; source: endogenous, crude CCRF-CEM cell extract
[5]
  stoichiometry N: 2 and 4
